Experimental data reported in paper PMC11580931 (bioRxiv, 2024).

T1: 3-pHis peptide (biotin-aminocaproic acid-AGAG-3-pHis-AGAG)
T1 sequence (peptide, biotin-aminocaproic acid on the N-terminus; 3-phosphohistidine at position 5): AGAGHAGAG


Tests used:
[1] = biological target: 3-pTza peptide (Biotin-AminocaproicAcid-AGAG-3-pTza-AGAG); experiment: BLI
[2] = biological target: T1, 3-pHis peptide (biotin-aminocaproic acid-AGAG-3-pHis-AGAG); experiment: BLI
[3] = biological target: 3-pHis form of ACLY (120 kDa) (Homo sapiens (HEK293T, endogenous), UniProt P53396, 3-phosphohistidine (residue not stated)); experiment: immunoblot
Chain of 3-pHis form of ACLY (120 kDa) (P53396 whole entry): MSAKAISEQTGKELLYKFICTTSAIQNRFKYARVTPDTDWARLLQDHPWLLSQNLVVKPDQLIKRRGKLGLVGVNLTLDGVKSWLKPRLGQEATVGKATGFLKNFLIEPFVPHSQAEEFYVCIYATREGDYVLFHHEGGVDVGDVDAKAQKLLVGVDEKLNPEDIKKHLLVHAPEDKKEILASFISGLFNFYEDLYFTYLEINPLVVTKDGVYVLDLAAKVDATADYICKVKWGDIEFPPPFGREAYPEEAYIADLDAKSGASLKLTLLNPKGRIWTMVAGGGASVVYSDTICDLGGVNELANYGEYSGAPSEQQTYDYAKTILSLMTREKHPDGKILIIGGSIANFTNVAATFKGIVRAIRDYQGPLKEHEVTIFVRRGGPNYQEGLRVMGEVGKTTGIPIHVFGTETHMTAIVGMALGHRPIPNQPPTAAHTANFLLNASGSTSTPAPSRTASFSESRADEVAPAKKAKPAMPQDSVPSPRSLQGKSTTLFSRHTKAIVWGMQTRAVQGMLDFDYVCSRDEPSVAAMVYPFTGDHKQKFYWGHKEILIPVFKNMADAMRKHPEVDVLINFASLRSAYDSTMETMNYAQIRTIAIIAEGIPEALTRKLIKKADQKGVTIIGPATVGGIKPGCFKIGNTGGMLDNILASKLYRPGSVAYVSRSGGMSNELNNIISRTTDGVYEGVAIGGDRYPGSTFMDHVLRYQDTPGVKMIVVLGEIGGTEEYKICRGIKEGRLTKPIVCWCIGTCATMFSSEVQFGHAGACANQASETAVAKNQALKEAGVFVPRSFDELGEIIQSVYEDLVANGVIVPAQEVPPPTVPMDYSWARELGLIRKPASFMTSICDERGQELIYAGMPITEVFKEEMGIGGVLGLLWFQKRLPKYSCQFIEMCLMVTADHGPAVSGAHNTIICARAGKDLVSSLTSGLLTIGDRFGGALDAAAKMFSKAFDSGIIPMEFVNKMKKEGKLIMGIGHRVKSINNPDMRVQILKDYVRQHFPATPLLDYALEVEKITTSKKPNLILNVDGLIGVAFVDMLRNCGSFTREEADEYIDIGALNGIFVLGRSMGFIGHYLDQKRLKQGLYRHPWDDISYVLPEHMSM

| Kd [1] | koff [1] | kon [1] | Kd [2] | koff [2] | kon [2] | binding result [3] | Binder |
| --- | --- | --- | --- | --- | --- | --- | --- |
| 0.495 nM | 4.49e-05 s⁻¹ | 90600 M⁻¹ s⁻¹ |  |  |  |  | hSC44.22 IgG (antibody, V domains shown) VH: EVQLVESGGGLVQPGGSLRLSCTASGFSIDSYGFSWVRQAPGKGLEHIGYLTAGGRAFYASWAKSRSTITRNTNENTVTLKMNSLRAEDTAVYYCAKLGTGTPVAIWG VL: DIQMTQSPSSLSASVGDRVTITCRASQSVWRNKNVAWYQQKPGKAPKRLIYAIASLYSGVPSRFSGSGSGTDFTLTISSLQPEDFATYYCVGHYGSENDAYYAFGQGTKVEIK |
| 0.588 nM | 8.32e-05 s⁻¹ | 141000 M⁻¹ s⁻¹ |  |  |  |  | hSC44.1 IgG (antibody, V domains shown) VH: EVQLVESGGGLVQPGGSLRLSCTASGFSIDSYGFSWVRQAPGKGLEHIGYLTAGGRAFYASWAKSRSTITRNTNENTVTLKMNSLRAEDTAVYYCAKLGTGSPIAIWGQGTLVTVSS VL: DIQMTQSPSSLSASVGDRVTITCRASQSVWRNKNVAWYQQKPGKAPKRLIYAIASLYSGVPSRFSGSGSGTDFTLTISSLQPEDFATYYCVGHYGSENDAYYAFGQGTKVEIK |
| < 0.001 nM |  | 35100 M⁻¹ s⁻¹ | 9.5 nM | 2.61e-05 s⁻¹ | 8880 M⁻¹ s⁻¹ |  | hSC44.20.N32Y^L IgG (antibody, V domains shown) VH: EVQLVESGGGLVQPGGSLRLSCTASGFSIDSYGFSWVRQAPGKGLEHIGYLTAGGRAFYASWAKSRSTITRNTNENTVTLKMNSLRAEDTAVYYCAKLGTGSRFAIWGQGTLVTVSS VL: DIQMTQSPSSLSASVGDRVTITCRASQSVWRNKYVAWYQQKPGKAPKRLIYAIASLYSGVPSRFSGSGSGTDFTLTISSLQPEDFATYYCVGHYGSENDAYYAFGQGTKVEIK |
| 1.21 nM |  | 24900 M⁻¹ s⁻¹ |  |  |  |  | hSC44.28 IgG (antibody, V domains shown) VH: EVQLVESGGGLVQPGGSLRLSCTASGFSIDSYGFSWVRQAPGKGLEHIGYLTAGGRAFYASWAKSRSTITRNTNENTVTLKMNSLRAEDTAVYYCAKLGTGSPLAIWG VL: DIQMTQSPSSLSASVGDRVTITCRASQSVWRNKFVAWYQQKPGKAPKRLIYAIASLYSGVPSRFSGSGSGTDFTLTISSLQPEDFATYYCVGHYGSENDAYYAFGQGTKVEIK |
| 0.405 nM | 7.37e-05 s⁻¹ | 182000 M⁻¹ s⁻¹ |  |  |  |  | hSC44.13 IgG (antibody, V domains shown) VH: EVQLVESGGGLVQPGGSLRLSCTASGFSIDSYGFSWVRQAPGKGLEHIGYLTAGGRAFYASWAKSRSTITRNTNENTVTLKMNSLRAEDTAVYYCAKLGTGSPVAIWG VL: DIQMTQSPSSLSASVGDRVTITCRASQSVWRNKNVAWYQQKPGKAPKRLIYAIASLYSGVPSRFSGSGSGTDFTLTISSLQPEDFATYYCVGHYGSENDAYYAFGQGTKVEIK |

More lines, now with the values behind:

| Binder | Kd [1] | koff [1] | kon [1] | Kd [2] | koff [2] | kon [2] | binding result [3] |
| --- | --- | --- | --- | --- | --- | --- | --- |
| hSC44 IgG (humanized version of rSC44) (antibody, V domains shown) VH: EVQLVESGGGLVQPGGSLRLSCTASGFSIDSYGFSWVRQAPGKGLEHIGYLTAGGRAFYASWAKSRSTITRNTNENTVTLKMNSLRAEDTAVYYCAKLGSGNPVAIWGQGTLVTVSS VL: DIQMTQSPSSLSASVGDRVTITCRASQSVWRNKNVAWYQQKPGKAPKRLIYAIASLYSGVPSRFSGSGSGTDFTLTISSLQPEDFATYYCVGHYGSENDAYYAFGQGTKVEIK | 1.2 nM |  |  |  |  |  |  |
| hSC44.31 IgG (antibody, V domains shown) VH: EVQLVESGGGLVQPGGSLRLSCTASGFSIDSYGFSWVRQAPGKGLEHIGYLTAGGRAFYASWAKSRSTITRNTNENTVTLKMNSLRAEDTAVYYCAKLGTGTPFAIWGQGTLVTVSS VL: DIQMTQSPSSLSASVGDRVTITCRASQSVWRNKYVAWYQQKPGKAPKRLIYAIASLYSGVPSRFSGSGSGTDFTLTISSLQPEDFATYYCVGHYGSENDAYYAFGQGTKVEIK | 2.71 nM | 3.98e-05 s⁻¹ | 14700 M⁻¹ s⁻¹ |  |  |  |  |
| hSC44.3 IgG (antibody, V domains shown) VH: EVQLVESGGGLVQPGGSLRLSCTASGFSIDSYGFSWVRQAPGKGLEHIGYLTAGGRAFYASWAKSRSTITRNTNENTVTLKMNSLRAEDTAVYYCAKIGSGSPVAIWG VL: DIQMTQSPSSLSASVGDRVTITCRASQSVWRNKNVAWYQQKPGKAPKRLIYAIASLYSGVPSRFSGSGSGTDFTLTISSLQPEDFATYYCVGHYGSENDAYYAFGQGTKVEIK | 0.352 nM | 1.43e-05 s⁻¹ | 40700 M⁻¹ s⁻¹ |  |  |  |  |
| hSC44.8 IgG (antibody, V domains shown) VH: EVQLVESGGGLVQPGGSLRLSCTASGFSIDSYGFSWVRQAPGKGLEHIGYLTAGGRAFYASWAKSRSTITRNTNENTVTLKMNSLRAEDTAVYYCAKIGTGSRVAIWG VL: DIQMTQSPSSLSASVGDRVTITCRASQSVWRNKNVAWYQQKPGKAPKRLIYAIASLYSGVPSRFSGSGSGTDFTLTISSLQPEDFATYYCVGHYGSENDAYYAFGQGTKVEIK | 0.185 nM | 6.66e-05 s⁻¹ | 359000 M⁻¹ s⁻¹ |  |  |  |  |
| hSC44.20.N32F^L IgG (antibody, V domains shown) VH: EVQLVESGGGLVQPGGSLRLSCTASGFSIDSYGFSWVRQAPGKGLEHIGYLTAGGRAFYASWAKSRSTITRNTNENTVTLKMNSLRAEDTAVYYCAKLGTGSRFAIWGQGTLVTVSS VL: DIQMTQSPSSLSASVGDRVTITCRASQSVWRNKFVAWYQQKPGKAPKRLIYAIASLYSGVPSRFSGSGSGTDFTLTISSLQPEDFATYYCVGHYGSENDAYYAFGQGTKVEIK | 1.54 nM | 5.73e-05 s⁻¹ | 37300 M⁻¹ s⁻¹ | 1.68 nM | 1.64e-05 s⁻¹ | 13900 M⁻¹ s⁻¹ | binds |
| hSC44.20 IgG (antibody, V domains shown) VH: EVQLVESGGGLVQPGGSLRLSCTASGFSIDSYGFSWVRQAPGKGLEHIGYLTAGGRAFYASWAKSRSTITRNTNENTVTLKMNSLRAEDTAVYYCAKLGTGSRFAIWGQGTLVTVSS VL: DIQMTQSPSSLSASVGDRVTITCRASQSVWRNKNVAWYQQKPGKAPKRLIYAIASLYSGVPSRFSGSGSGTDFTLTISSLQPEDFATYYCVGHYGSENDAYYAFGQGTKVEIK | < 0.001 nM |  | 257000 M⁻¹ s⁻¹ | 21 nM |  | 75500 M⁻¹ s⁻¹ | binds |
| rSC44 IgG (rabbit SC44-8 anti-3-pTza/3-pHis mAb) (antibody, V domains shown) VH: QSVKESGRGLVQPGGSLTLTCTASGFSIDSYGFSWVRQAPGKGLEHIGYLTAGGRAFYASWAKSRSTITRNTNENTVTLKMTSLTAADTATYFCAKLGSGNPVAIWGPGTLVTVSS VL: QVLTQTPSFTSAAVGGTVTINCQSSQSVWRNKNLAWYQQKPGQPPKRLIYAIATLDSGVPSRFSGSGSGTQFTLTISDVQCDDAATYYCVGHYGSENDAYYAFGGGTEVVVK |  |  |  |  |  |  | binds |
